The series can be described thus: soluble on expression in E. coli; label from the status in PepcDB or PDB records.
On to “MAWVVNKQSTQEELANRFRALVEANEILQIPGAHDAMAALVARNTGFLALYLSGAAYTASKGLPDLGIVTSTEVAERARDLVRATDLPVLVDIDTGFGGVLNVARTAVEMVEAKVAAVQIEDQQLPKKCGHLNGKKLVTTEELVQKIKAIKEVAPSLYIVARTDARGVEGLDEAIERANAYVKAGADAIFPEALQSEEEFRLFNSKVNAPLLANMTEFGKTPYYSAEEFANMGFQMVIYPVTSLRVAAKAYENVFTLIKETGSQKDALSNMQTRSELYETISYHDFEELDTGIAKTVLSEDQ”, for which the “soluble on expression in E. coli” value is given as “not soluble”.
As to “MSLKKSDATGGEVASAEPIAKIPAPAGKAWTETFSVTPDGGYLLGNPDAPIKLIEFGALSCSHCAEFSEKGFPKLRDEYIASGRVSYELRLFLLNALDMPAVLLATCGAPEAVIPLSEQFWAWQPNMFSNLQKDEAAFQQISNLPAEKRFAGIAQLGGLSEFFASRGIAAAQGATCLADTAKATRLATVNDQWGKEYDITGTPTFFLNGSKTGVATWAELEPMLQKAGAREGHHHHHH”, the “soluble on expression in E. coli” value is “soluble”.
On to “MSLDKPYHVKFYSYNFPLPKPVVTAHGHWQRRRGLIVELTDQRGNRGRGEIAPLPWFGTEDLASATDFCRSLKGRITPAQIEKIGDRLPCCGFAFGSAEWELESGSVIENSPNSLSYCQLLPTGEAALDYLASNPQLGASTFKWKIGVGDFAVERDLYGQLWRRLPEGCQIRLDANGGLSVDIAQQWLTLLDRQRENSGPKIQYLEQPLPPGEIDEMFRLQEDFATSIALDEAVCSLAQLAQLYDKGWSGLYILKAAIMGNPRVLNHWLKTHPIPAIFSSVFETAIARGQVLALAQKWNLPDHAVGFAPLREPITEATPDSVEGHHHHHH”, for which the “soluble on expression in E. coli” value is “soluble”.
With “MGSDKIHHHHHHLYNNSANTQFTGKSIHFLPSCHSTNTEASLLIRAQKAVNGLIVITNEQTAGRGQQGNSWLSKADSNLTFSVIFFPEKLHLKDSFYLNIVSSLSIAKTVDELVPENIVKVKWPNDILLNNKKVCGILIENMLRGEHIHAVVMGIGVNVNHSDGNLPFAGAMSSEAAKTFHLQEVFTRICENLEPYYLMLEQGLFAELDALYLQNLYGLNEKKHFSDSEGNFTGTIQAVLPGGLLQVEKESGVIKQYTFKEVSLVK” the entry was “not soluble”; with “MGSDKIHHHHHHMKIYVDGREVIINDNERNLLEALKNVGIEIPNLCYLSEASIYGACRMCLVEINGQITTSCTLKPYEGMKVKTNTPEIYEMRRNILELILATHNRDCTTCDRNGSCKLQKYAEDFGIRKIRFEALKKEHVRDESAPVVRDTSKCILCGDCVRVCEEIQGVGVIEFAKRGFESVVTTAFDTPLIETECVLCGQCVAYCPTGALSIRNDIDKLIEALESDKIVIGMIAPAVRAAIQEEFGIDEDVAMAEKLVSFLKTIGFDKVFDVSFGADLVAYEEAHEFYERLKKGERLPQFTSCCPAWVKHAEHTYPQYLQNLSSVKSPQQALGTVIKKIYARKLGVPEEKIFLVSFMPCTAKKFEAEREEHEGIVDIVLTTRELAQLIKMSRIDINRVEPQPFDRPYGVSSQAGLGFGKAGGVFSCVLSVLNEEIGIEKVDVKSPEDGIRVAEVTLKDGTSFKGAVIYGLGKVKKFLEERKDVEIIEVMACNYGCVGGGGQPYPNDSRIREHRAKVLRDTMGIKSLLTPVENLFLMKLYEEDLKDEHTRHEILHTTYRPRRRYPEKDVEILPVPNGEKRTVKVCLGTSCYTKGSYEILKKLVDYVKENDMEGKIEVLGTFCVENCGASPNVIVDDKIIGGATFEKVLEELSKNG”, “not soluble”; with “MRHREWSRATEGDRTMATTIATLTQKTDGILEGVFATIRVNAPIAIIPNASKSSEEAPDYRVIHRKTGFEIGAGWNRIARQTGEEYLSVKLEAPEIGVIFGNLAPAPGGDPSKKVILWNNPD”, “not soluble”.
For the sequence “MGSDKIHHHHHHMSTEHQLLVGLLKKLKDDALVLPTLPEVAMRVQEVVSRQDSSLKQVADIIGQDAAISARIIKVANSALYSRGNKAESINAAVSRIGLVQIKSITTSVAMEQLFISTNEMVWEVMDEVWKTSIEVTASSCAMLEMYNKRHPTKKLDRDTLTLAGLVHNIGALPVLTEAEVHPELFGRIDDLRSLVRKMQGPIGRAVLKTWDFAPEVMEVVERWADLHYLPEKVTYLDFIRSAAFYTGELRAGEELEERLGVFAQRGLPVTPEDLASDEFINMYHSIMQSYE”, the “soluble on expression in E. coli” value is reported as “not soluble”.
“RHLCESRQQAQRWIRAGAVHVNHIPIDKPGTLVAVDATIQVKAKPAYVSRGGEKLAHALGVFPVVVRDRVCLDGGISTGGFTDCLLQAGAQLVYGIDVGYGQVDWKLRQDPRLILRERTNLRYLTPADLYTDDGPRPDLGVVDVSFISLTKVLPALWELLLPPRELIALIKPQFEVGRDRLGKNGVVRDAKARQEAVDQVITAAAALGWQCYGVTPSPILGPAGNQEFLAHFCCGANGVLENEMVS”: the “soluble on expression in E. coli” value is on record as “not soluble”.
Turning to “MEKPVFYLDRVGEENTEAVIGAAAKRAAELGISHIVVASTSGKTALKMAEAVKGSNIKVIGVSHQYGQKEKGEWEVGEEYRKKLEELGAVITTQSHMFSGIERSITKKFGGYSRIEVISDTLRSLFGKGFKVAIEVAIMAADSGHIPVSDDTEIIAIGGTRWGADVALVLRPAHSNDFFSLQVREIIAMPRAKEDLEHHHHHH”, the “soluble on expression in E. coli” value is on record as “soluble”.
With “LGSPMAYFVENFWGEKNSGFDVLYHNMKHGQISTKELADFVRERATIEEAYSRSMTKLAKSASNYSQLGTFAPVWDVFKTSTEKLANCHLDLVRKLQELIKEVQKYGEEQVKSHKKTKEEVAGTLEAVQTIQSITQALQKSKENYNAKCVEQERLKKEGATQREIEKAAVKSKKATDTYKLYVEKYALAKADFEQKMTETAQKFQDIEETHLIHIKEIIGSLSNAIKEIHLQIGQVHEEFINNMANTTVESLIQKFAESKGTGKERPGLIEFEECD” the entry was “soluble”; with “MSLACGEFSLIARYFDRVRSSRLDVETGIGDDCALLNIPEKQTLAISTDTLVAGNHFLPDIDPADLAYKALAVNLSDLAAMGADPAWLTLALTLPEVDEPWLEAFSDSLFALLNYYDMQLIGGDTTRGPLSMTLGIHGYIPAGRALKRSGAKPGDWIYVTGTPGDSAAGLAVLQNRLQVSEETDAHYLIQRHLRPTPRILHGQALRDIASAAIDLSDGLISDLGHIVKASGCGARVDVDALPKSDAMMRHVDDGQALRWALSGGEDYELCFTVPELNRGALDVAIGQLGVPFTCIGQMSADIEGLNFVRDGMPVTFDWKGYDHFATPEGGSHHHHHH”, “soluble”; with “ADVYDIGRGAVMYVAGGKVSWAPRGGNEVKFEPVPKELKLVANRLHTSFPPHHVVDMSKFTFITPGSGVSMRVEYQYGCLPADTVPEGNCWWRLLDSLPPEVQYKEIRHANQFGYQTKHGVPGKYLQRRLQVNGLRAVTDTHGPIVIQYFSVKESWIRHLKLVEEPSLPGFEDLLRIRVEPNTSPLAGKDEKIFRFGSHKWYG”, “soluble”.
Next, “GEALDYKTPLLKALAAVDKAATEVCQLFDKNVTRVFTNLGWEQEYFLVDSSLYNARPDLCLTGRTLMGHSSAKDQQLEDHYFGSIPPRVTAFMKELEIECHKLGIPAKTRHNEVAPNQFELAPIFENCNLANDHNQLVMDLMKRIARKHHFNVLLHEKPYSSVNGSGKHNNWSLCTDTGINLFAPGKNPKGNMLFLTFLVNVLMMVYKNQDLLRASIMSASNSYRLGANEAPPAILSCFLGSQLSATLDEIVRQVGNEKMTPEEKTTLKLGIGRIPEILLDTTDRNRTSPFAFTGNRFEFRAAGSSSNCAAAMIAINAAMANQLNEFRASVEKLMEEGVGKDEAIFRLLKETIIASEAIRFEGDGYSEEWRQEAARRGLTNICHVPEALMHYVDNQSKSVLIGERIFNETELNSRLEVELEKYTMKVQIEGRVLGDLAINH”: “not soluble”.
With “MPFLPPLTPPTELYVGIQLPNPISILVNYLPVRQTPIETLRNLVYSCDINTLAIDEFMTWPSLLQPESTFRPYFELLVERGSLKVFAKRATS” the entry was “not soluble”; with “MGGSHHHHHHMASSVPIPGIKDISKLKFFYGFKYLWNPTVYNKIFDKLDLTKTYKHPEELKVLDLYPGVGIQSAIFYNKYCPRQYSLLEKRSSLYKFLNAKFEGSPLQILKRDPYDWSTYSNLIDEERIFVPEVQSSDHINDKFLTVANVTGEGSEGLIMQWLSCIGNKNWLYRFGKVKMLLWMPSTTARKLLARPGMHSRSKCSVVREAFTDTKLIAISDANELKGFDSQCIEEWDPILFSAAEIWPTKGKPIALVEMDPIDFDFDVDNWDYVTRHLMILKRTPLNTVMDSLGHGGQQYFNSRITDKDLLKKCPIDLTNDEFIYLTKLFMEWPFKPDILMDFVDMYQTEHSG”, “soluble”; with “QYRHLLDLQPMLEALSESSFLNQPVEGHGPLGIIAFGIGYNYAMEARKAHSIECRLLKIGQYPLPRTQVNELFEACSEVLVVEEGYPVYEELFRGYFGSAKVRGRMDGTLPRDGELTTDLVAAALGVKPPETATTPEIVVGRPPELCKGCGHRDMFDAINIAIKENADHHVFSDIGCYTLGALPPYNAIHTCVDMGAAITMAKGAADAGLRPAVCVIGDSTFAHSGMTGLLDAVNDRTPVTVIIADNNTTAMTGGQCSSASGSKLVNICIGLGVEEA”, “not soluble”.
Turning to “MGSDKIHHHHHHMDQKALSMFAHLSQTLHFGKTALAHHISPSTLSRAIQRLEDEVGGELLHRDNRTVVLTDVGKKFKIYAEQQLEQWHSFKQSLDHKQAALTGKLHIYCSVTAAYSHLPPLLERFRARHPLVEIMLTTGDAADALEQVQNQSVDFAIAAAPENLPRSVYFHHLDTIALTVIAPTMTCKVQQQLSQKVLTWSEIPIILPEHGAARKRFELWYRKKQQGKPTIYATVSGHEALVSMVALGCGVGIVPQVVVDNSPVKDRVSNLENIGDIEPFELGVCCLNQAKAQPLIKAFFSSIV”, the “soluble on expression in E. coli” value is “not soluble”.
With “MGSDKIHHHHHHLIQYAQAVMRHEAVAAIVAEIVARYQAIADDFELEASIMAAIEEELDQLPKLTFKNNDYLMAGFKARGEKLNAFLMTAVLNHEGIEATYGEPKSLGIVVTDHPNDAEVSRETYRNLATFRRPIGVLVVPGFYGYTSDDDIATFSRGGSDITGAILANGFHADLYENFTDVDGVAAADPRVVANPQMIREMTYREMRELSYGGFGVFHDEAILPAIAGQVPINLKNTNHPAAPGTMIVPEQHFVPKHAITGIVSSQHFGAIYLHRYLLNKEVGFTLKILQVLAHNGISYEHMPSGIDDLTIILDDRQLTEAKRKTICAEIQAAVHPDVLKWIDDYAIIMVVGEGMAQRTGLIQTILQPLATAGVHVSMINEGASQISLMLGTSRESANRAVKTIYNAFFIPINQRLEVH” the entry was “not soluble”; with “LGRLFGTDGVRGVANLELTAELAYKLGQAGAYVLTSETKHTPKILVGMDTRISGDMLEASLVAGLCSVGAEVACLGIAPTPTVAYLTRYYNADAGVVISASHNPYEFNGIKFFNSKGYKLSDALEERIESIILDNSEKIQLPTGEKIGRKIEIESPLDDYVNFIKSTIKGDLKGLKVAIDCANGASYQVAPVTFFELGADVCVINNEPDGVNINKDCGSTHIEQLQKFVIESGADVGLAFDGDADRVLAVDENGNMVDGDQIMAIIGLELKKQGKLTNNTIVATVMSNLGLDIMAKREGINIVKTKVGDRYVLENMLENGHVLGGEQSGHIIFLEHSTTGDGILTGAQLLNVVKSSGKKLSELASIMQVLPQVLMNARVSNQNKEKYLEDEVICEMCKELENEFRDEGRVLIRPSGTEPLVRVMIEGKDRDYIEKRALELVKVIEERLG”, “soluble”.

These data come from the DeepSol protein solubility set.
